Target: human HER4 expressed on HEK293 cells (human) (UniProt Q15303)
Assay: flow cytometry, HEK293 HER4 overexpressing cells, PE-A B2-A channel

human HER4 expressed on HEK293 cells (human), sequence (Q15303 26-1308): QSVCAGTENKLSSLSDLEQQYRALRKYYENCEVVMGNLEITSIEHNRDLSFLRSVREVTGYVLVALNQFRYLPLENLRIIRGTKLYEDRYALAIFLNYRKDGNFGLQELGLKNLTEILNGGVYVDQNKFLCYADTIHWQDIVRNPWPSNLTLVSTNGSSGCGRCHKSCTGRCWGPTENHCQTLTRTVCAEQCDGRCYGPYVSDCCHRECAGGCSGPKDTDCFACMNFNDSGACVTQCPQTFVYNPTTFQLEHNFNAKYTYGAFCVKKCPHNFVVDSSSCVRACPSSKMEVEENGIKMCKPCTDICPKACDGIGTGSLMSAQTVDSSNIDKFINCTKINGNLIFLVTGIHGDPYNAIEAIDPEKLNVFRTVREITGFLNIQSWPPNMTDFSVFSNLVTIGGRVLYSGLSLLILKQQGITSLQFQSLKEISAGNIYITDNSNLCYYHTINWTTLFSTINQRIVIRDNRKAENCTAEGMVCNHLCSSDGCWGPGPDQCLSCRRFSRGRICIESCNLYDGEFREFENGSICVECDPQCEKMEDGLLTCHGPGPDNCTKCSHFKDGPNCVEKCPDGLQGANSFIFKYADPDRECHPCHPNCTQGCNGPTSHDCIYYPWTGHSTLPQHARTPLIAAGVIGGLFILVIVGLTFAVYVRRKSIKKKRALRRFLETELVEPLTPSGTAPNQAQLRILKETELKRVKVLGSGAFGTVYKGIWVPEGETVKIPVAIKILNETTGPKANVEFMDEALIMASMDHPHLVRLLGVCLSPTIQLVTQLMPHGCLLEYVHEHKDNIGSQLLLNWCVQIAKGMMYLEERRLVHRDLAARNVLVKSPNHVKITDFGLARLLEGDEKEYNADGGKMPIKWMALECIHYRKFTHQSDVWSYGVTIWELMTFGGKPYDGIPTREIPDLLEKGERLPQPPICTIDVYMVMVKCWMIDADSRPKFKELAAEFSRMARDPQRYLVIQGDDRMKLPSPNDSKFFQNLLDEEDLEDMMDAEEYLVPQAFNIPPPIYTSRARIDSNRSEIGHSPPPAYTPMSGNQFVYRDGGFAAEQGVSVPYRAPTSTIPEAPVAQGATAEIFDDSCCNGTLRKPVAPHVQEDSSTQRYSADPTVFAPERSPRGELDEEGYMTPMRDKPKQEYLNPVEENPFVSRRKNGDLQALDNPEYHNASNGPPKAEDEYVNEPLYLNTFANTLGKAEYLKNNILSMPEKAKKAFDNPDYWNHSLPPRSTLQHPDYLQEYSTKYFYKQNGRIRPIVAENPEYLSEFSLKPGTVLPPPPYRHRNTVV

B1: MM-121 (antibody, INN chains, looked up, human IgG2, V domains shown)
VH: EVQLLESGGGLVQPGGSLRLSCAASGFTFSHYVMAWVRQAPGKGLEWVSSISSSGGWTLYADSVKGRFTISRDNSKNTLYLQMNSLRAEDTAVYYCTRGLKMATIFDYWGQGTLVTVSS
VL: QSALTQPASVSGSPGQSITISCTGTSSDVGSYNVVSWYQQHPGKAPKLIIYEVSQRPSGVSNRFSGSKSGNTASLTISGLQTEDEADYYCCSYAGSSIFVIFGGGTKVTVL
modifications: IgG2/kappa
- % Positive for HER4: 8.73%

Reference: US20210155712A1
